Test results: patent publication US20180282372

T1: Aktide biosensor RRRRRSVDSHGGKbiotinGG (SEQ ID NO:11)
T1 sequence: RRRRRSVDSHGGKGG

T2: candidate biosensor peptide substrate WHLQTWCGYGGKbiotinGG (SEQ ID NO:12)
T2 chain: WHLQTWCGYGGKGG

B1: LKB1 serine/threonine kinase (Liver Kinase B1) (protein)
chain: MEVVDPQQLGMFTEGELMSVGMDTFIHRIDSTEVIYQPRRKRAKLIGKYLMGDLLGEGSYGKVKEVLDSETLCRRAVKILKKKKLRRIPNGEANVKKEIQLLRRLRHKNVIQLVDVLYNEEKQKMYMVMEYCVCGMQEMLDSVPEKRFPVCQAHGYFCQLIDGLEYLHSQGIVHKDIKPGNLLLTTGGTLKISDLGVAEALHPFAADDTCRTSQGSPAFQPPEIANGLDTFSGFKVDIWSAGVTLYNITTGLYPFEGDNIYKLFENIGKGSYAIPGDCGPPLSDLLKGMLEYEPAKRFSIRQIRQHSWFRKKHPPAEAPVPIPPSPDTKDRWRSMTVVPYLEDLHGADEDEDLFDIEDDIIYTQDFTVPGQVPEEEASHNGQRRGLPKAVCMNGTEAAQLSTKSRAEGRAPNPARKACSASSKIRRLSACKQQ

Tests used:
[1] = system: T1, Aktide biosensor RRRRRSVDSHGGKbiotinGG (SEQ ID NO:11)
[2] = biological target: T2, candidate biosensor peptide substrate …
[3] = biological target: the other five peptides (of six candidate biosensors peptides screened with LKB1)

Row | Molecule | phosphorylation of the peptide in a time-course in vitro kinase assay (MALDI/TOF/TOF-MS; 0, 30, 60, 120 min) [1] | phosphorylation of the peptide in an in vitro kinase assay (MALDI/TOF/TOF-MS) [1] | phosphorylation of the peptide in an in vitro kinase assay (LC ESI-MS) [2] | phosphorylation of the peptide in an in vitro kinase assay screen with LKB1 [3]
1 | Akt serine/threonine kinase (protein kinase B) | Nearly complete conversion to phosphorylated product was observed after 2 hr. | this peptide sequence is able to be efficiently phosphorylated by Akt over a 2 hr kinase assay | – | –
2 | B1 | – | – | this initial peptide sequence is able to be partially phosphorylated by LKB1 after a 3 hr reaction | Out of these six, one sequence, WHLQTWCGYGGKbiotinGG (SEQ ID NO:12), was shown to be partially phosphorylated by LKB1 after a 3 hr reaction.
